# According to publication PMC5811355:
# Target: FhuA 13R1 (Escherichia coli) (UniProt P06971)
# Test: continuous wave EPR of spin-labelled protein
# Sequence of UniProt P06971 (P06971 34-747): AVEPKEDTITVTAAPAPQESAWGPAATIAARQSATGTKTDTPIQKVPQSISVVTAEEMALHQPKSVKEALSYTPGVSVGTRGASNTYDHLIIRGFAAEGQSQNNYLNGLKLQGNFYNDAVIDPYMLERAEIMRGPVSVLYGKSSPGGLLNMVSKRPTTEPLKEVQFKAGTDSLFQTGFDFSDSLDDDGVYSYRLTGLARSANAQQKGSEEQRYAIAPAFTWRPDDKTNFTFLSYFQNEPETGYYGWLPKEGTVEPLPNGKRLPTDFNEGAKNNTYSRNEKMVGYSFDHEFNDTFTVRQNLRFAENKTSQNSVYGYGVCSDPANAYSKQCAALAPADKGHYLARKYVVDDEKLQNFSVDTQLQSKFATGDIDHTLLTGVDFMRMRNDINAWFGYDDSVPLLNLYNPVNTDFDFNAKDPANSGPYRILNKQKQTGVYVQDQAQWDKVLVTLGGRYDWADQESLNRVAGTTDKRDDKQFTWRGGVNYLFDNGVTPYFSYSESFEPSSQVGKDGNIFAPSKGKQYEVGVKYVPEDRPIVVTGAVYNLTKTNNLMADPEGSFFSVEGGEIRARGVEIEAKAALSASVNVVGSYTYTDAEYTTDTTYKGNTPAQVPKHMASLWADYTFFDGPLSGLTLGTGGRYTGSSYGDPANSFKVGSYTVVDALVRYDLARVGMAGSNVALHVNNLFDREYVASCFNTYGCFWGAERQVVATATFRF
substance,measurement,value
TonB (103-239) (from UniProt P02929 103-239) (domain or fragment),fraction of FhuA bound to TonB,95%
